Positions count from the first letter of the chain named.
B1: ADI-49133 (antibody, V domains shown)
VH: EVQLLESGGGLVQPGGSLRLSCAASGFTFRNYAMNWVRQTPGKGLEWVSGISGGGDSTNYADSVKGRFTISRDNSRNTLYLQLNSLRAEDTAVYYCAKDLAVSTPRYWFDSWGQGTLVTVSS
VL: DIQMTQSPSSLSASVGDRVTITCRASQTISVDLNWYQHKPGKAPKLLIFAASTLQSGVPSRFSGSGSGTDFTLTIRSLQPEDFATYYCQQSYSIPRITFGQGTRLEIK
notes: full-length IgG; also called Antibody Number 6
B2: ADI-42233 (antibody, V domains shown)
VH: EVQLVESGGGLVKPGGSLRLSCVASGFTFSRYSMNWVRQAPGKGLEWVSSISHSGRYIYYADSEKGRFTISRDNAKNSLYLQMNSLRAEDTAVYYCARDHYFDSSGDYLSYYYNGMDVWGQGTTVTVSS
VL: ETTLTQSPGTLSLSPGERATLSCRASRSVSGNYLAWYQQKPGQAPRLLIYAASSRATGIPDRFSGGGSGTHFTLTISRLEPEDFAVYYCQQYGSSPRAFGQGTKVEIK
notes: full-length IgG; also called Antibody Number 66
B3: ADI-50535 (antibody, V domains shown)
VH: QVQLVQSGAEVKKPGASVKVSCKASGYTFTSYGISWVRQAPGQGLEWMGWISAYNGNTNYAQKLQGRVTMTTDTSTSTAYMELRSLRSDDTAVYYCARRPYYYGSRRPAGHMDVWGQGTTVTVSS
VL: NFMLTQPHSVSESPGKTVTISCTRSSGSIASNYVQWYQQRPGSSPTTVIYEDNQRPSGVPDRFSGSIDSSSNSASLTISGLKTEDEADYYCQSYDSSNVVFGGGTKVTVL
notes: full-length IgG; also called Antibody Number 78
B4: ADI-42219 (antibody, V domains shown)
VH: QVQLVESGGGVVQPGRSLRLSCAASGFTFSSLAMHWVRQAPGKGLEWVATISYDVSNKYYADSVKGRFTISRDNSKNTLFLQMNSLRPEDTAVYYCARGYTGYDGFDYWGQGTLVTVSS
VL: QPVLTQPRSVSGSPGQSVTISCTGTSSDVGGYNYVSWYQQHPGKAPKLMISDVSKRPSGVPDRFSGSKSGNTASLTISGLQADDEADYYCCSYATNYGVVFGGGTKVTVL
notes: full-length IgG; also called Antibody Number 77
B5: ADI-49040 (antibody, V domains shown)
VH: EVQLVESGGALVHPGGSLGLSCAASGFTFSDHYMDWVRQAPGKGLEWVGRIRNKPNSYATQYAASVKGRFTISRDDSKKSLYLQMNSLNTEDTAVYYCARVRDGEYDYWGQGTLVTVSS
VL: DIQMTQSPSTLSASVGDRVTITCRASQSISTWLAWYQLKPGKAPKLLIYKASNLQSGVPSRFSGSGSGTEFTLTISSLQPDDFATYYCQQYNSYSPWGQGTKLEIK
notes: full-length IgG; also called Antibody Number 74
B6: ADI-42211 (antibody, V domains shown)
VH: QVQLVESGGGVVQPGRSLRLSCGGSGFTFSSYGMHWVRQAPGKGLEWVAVISYDGSKKYSADSVKGRFTISRDNSKNTLYLQMNSLRAEDTAVYYCAKGSVSVAGAEDYWGQGTLVTVSS
VL: DIQMTQSPSSLSASVGDRVTITCRASQGISSYLAWFQQKPGKVPKLLIYAASTLQSGVPSRFSGSGSGTDFTLTISSLQPEDVATYYCQKYNSAPQTFGQGTKVDIK
notes: full-length IgG; also called Antibody Number 58
B7: ADI-45164 (antibody, V domains shown)
VH: EVQLQESGPGLVKPSETLSLTCTVSGGSISSSSYYWGWIRQPPGKGLEWIGSIYYSGSTYYNPSLKSRVTISVDTSKNQFSLKLSSVTAADTAVYYCARGYCSSTSCFYYYYGMDVWGQGTTVTVSS
VL: not shown
notes: full-length IgG; also called Antibody Number 65
B8: ADI-49033 (antibody, V domains shown)
VH: EVQLVESGGGLVQPGGSLRLSCAASGLIFRNYAMSWVRQAPGKGLEWVSSFSGSGGSAYYADSVKGRFTISRDNSKSTVYLQMNRLRVEDTAVYYCAKDMAVSVHRGWFDDWGQGTLVTVSS
VL: EIVMTQSPSALSASVRDRVTITCRASQSIGSDLNWYQQRPGKAPMLLIYAATGLQSGVPSRFSGSGSGTDFTLTISNLQPEDFATYYCQQSYSPPMYTFGQGTKVDIK
notes: full-length IgG; also called Antibody Number 7
B9: ADI-48913 (antibody, V domains shown)
VH: EVQLLESGPGLVKPSETLSLTCTVSGGSISSYYWSWIRQPAGKGLELIGRIYTSGSGNYNPSLKRRVTMSVDTSKNQISLRLNSVTAADTAVYYCARERGGYFTEPFDIWGQGTMVTVSS
VL: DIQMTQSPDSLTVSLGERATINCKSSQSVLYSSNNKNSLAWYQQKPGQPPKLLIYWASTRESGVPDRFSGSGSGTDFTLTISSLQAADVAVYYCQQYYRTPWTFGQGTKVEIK
notes: full-length IgG; also called Antibody Number 60
B10: ADI-49561 (antibody, V domains shown)
VH: EVQLLESGGGVVQPGRSLRLSCVASGFTFSSYGMHWVRQAPGKGLEWVALISYDGSNKYYADSVKGRFTISRDNSKNTLYLQMNSLRAEDTAVYYCAKDQCGGDCTADYWGQGTLVTVSS
VL: QSVLTQPASVSGSPGQSITISCTGTSSDVGGDKYVSWYQQHPGKAPKPMIYEVSNRPSGVSNRFSGSKSGNTASLTISGLQAEDEADYYCSSYTSSSTPVVFGGGTKLTVL
notes: full-length IgG; also called Antibody Number 76
B11: ADI-45140 (antibody, V domains shown)
VH: EVQLLESGGGLVHPGGSLRLSCAASGFTFSDYEMNWVRQAPGKGLEWVSHISSSGNIIYYADSVKGRFTISRDNAKDSLYLQMNSLRAEDTAVYYCAATIFGVVSFDYWGQGTLVTVSS
VL: QSVLTQPPSVSAAPGQKVTISCSGSSSNIGNNYVSWYQQLPGTAPKVLIYDNNKRPSGIPDRFSGSKSGTSATLGITGLQTGDEADYYCGTWDSALGAAVFGGGTKLTVL
notes: full-length IgG; also called Antibody Number 61
B12: ADI-49168 (antibody, V domains shown)
VH: EVQLLESGGGLVQPGGSLRLSCAASGFTFSSYAMSWVRQATGRGLEWVSSIRSSGGRTEYADSVKGRFTISRDNSKNTLYLQMDSLRAEDTALYYCAKHYDSSGYYYEDYWGQGTLVTVSS
VL: DIVLTQSPSTLSASVGDRVTITCRASQSISDWLAWYQQKPGKAPGLLIYRASGLESGVPSRFSGSGSGTEFTLTISSLQPDDFATYYCHQYKDFPWTFGQGTKVDIK
notes: full-length IgG; also called Antibody Number 73
B13: ADI-46722 (antibody, V domains shown)
VH: EVQLVESGPGLVKPSGTLSLTCAVSGGSISSSNWWSWVRQPPGKGLEWIGEIYHSESTNYNPSLKSRVTISVDKSKNQFSLKLSSVTAADTAVYYCARDFWSGSNWFDPWGQGTLVTVSS
VL: QSALIQPPSVSAAPGQKVTISCSGSSSNIGNNYVSWYQQLPGTAPKLLIYDNNKRPSGIPDRFSGSKSGTSATLGITGLQTGDEADYYCGTWDNSLGVVFGGGTQLTVL
notes: full-length IgG; also called Antibody Number 71
B14: ADI-48908 (antibody, V domains shown)
VH: EVQLLESGGGLVQPGRSLRLSCAVSGFTFAEYAMHWVRQAPGKGLEWVSSISWNSGRIGYVDSVRGRFTISRDNAKNSLYLQMNSLRVEDTAFYYCAKGYDSSGYYWADYWGQGTLVTVSS
VL: EIVMTQSPATLSVSPGERATLSCRASQSVSFNLAWYQQKPGQAPRLLISRASTRAAGVPARFSGSGSGTEFTLTISSLQSEDFAVYYCQQYNNWPPLTFGGGTKLEIK
notes: full-length IgG; also called Antibody Number 59
B15: ADI-50211 (antibody, V domains shown)
VH: EVQLVESGGGLVQPGGSLRLSCAASGFTFSAYAMSWVRQAPGRGLEWVSAISGSDRRIYYADSVKGRFSISRDNSKNTLYLQMSSLRAEDTAVYYCAKYYDSSGYYYLDYWGQGTLVTVSS
VL: DIQLTQSPSTLSASVGDRVTITCRASQSVSSWLAWYQQKPGKAPRLLIYRASSLESGVPSRFSGSGSGTEFTLTISSLQPDDFAAYYCQQYNRDPYTFGQGTKVEIK
notes: full-length IgG; also called Antibody Number 62
B16: ADI-48899 (antibody, V domains shown)
VH: EVQLVESGGGLVQPGGSLRLSCAASGFIYTNYAMYWVRQAPGKGLEWVSAISGSGGITYYADSVKGRFTISRDNSKNTLYLQMNSLRAEDKAVYYCAKDGVTTINGWFHFEYWGQGTLVTVSS
VL: B15 VL with L4M, V29I, R45K, R50Q, G66E, A85T, R93S, D94F, Y96F, Q100P
notes: full-length IgG; also called Antibody Number 68
B17: ADI-42191 (antibody, V domains shown)
VH: EVQLVESGGGLVQPGGSLRLSCAASGFTFSDHYMDWVRQAPGKGLEWVGRTRNKPNSHTTEYAASVKGRFTISRDDSKNSLYLQMNSLQTEDTAVYYCARVYGGPDDYWGQGTLVTVSS
VL: EIVMTQSPSSLSASVGDRVTITCRASQSIRSYLNWYQQKPGKAPKLLIYAASSLQSGVPLRFSGSGSGTDFTLTISSLQPEDFATYYCQQSSITPPTFGQGTKLEIK
notes: full-length IgG; also called Antibody Number 67
B18: ADI-42199 (antibody, V domains shown)
VH: EVQLVESGGGLVQPGGSLRLSCAASGFTFSDHYMAWVRQAPGKGLEWVGRIRNKPNSYTTEYAASVKGRFTISRHDSENSLYLQMNSLKTEDTAVYYCCRESGEGFDPWGQGTLVTVSS
VL: SYELTQLPSVSVSPGQTARVTCSGDALQYVYWYQQKPGQAPVVVIYKDTERPSGIPERFSGSSSGTTVTLTITGVQAEDEADYYCQSADRSGSVIFGGGTKVTVL
notes: full-length IgG; also called Antibody Number 63
B19: ADI-42231 (antibody, V domains shown)
VH: QVQLVQSGAEVKKPGASVKVSCKASGYSFTTYGISWVRQAPGQGLEWMGWISGYSGDTNYAQKVQGRVTMTTDTSTSTAYMELRSLRSDDTAVYYCARDQSHGTFGGVIDSTTLFYYYGMDVWGQGTTVTVSS
VL: DIVMTQSPATLSLSPGERATLSCRASQSVSSYLAWYQQKPGQAPRLLIYDASNRATGIPARFSGSGSGTDFTLTISSLEPEDFAVYYCQQRSNWPSFGQGTKLEIK
notes: full-length IgG; also called Antibody Number 64
B20: ADI-42187 (antibody, V domains shown)
VH: EVQLLESGGGLVKPGGSLRLSCAASGFTFSSYSMNWVRQAPGKGLEWVSSISSRSSFMYYADSVKGRFTISRDNAKNSLYLQMNSLRVEDTAVYYCARDNSEVEDYGDYVLYHYYGMDVWGQGTTVTVSS
VL: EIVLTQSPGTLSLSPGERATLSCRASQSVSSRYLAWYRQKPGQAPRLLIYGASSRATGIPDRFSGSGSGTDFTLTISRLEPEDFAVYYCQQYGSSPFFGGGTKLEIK
notes: full-length IgG; also called Antibody Number 75
B21: ADI-49145 (antibody, V domains shown)
VH: EVQLLESGGGLVQPGGSLRLSCAASGFIFSDYYMDWVRQTPGKGPEWVGRITNRPNSYTTEYAASVKGRFTISRDDSTNSLFLHMNSLKTEDTAVYYCTRITGDRYWYLDLWGRGTLVTVSS
VL: DIVLTQSPSSLSASVGDRVTITCRASQSINNYLNWYQQKPGKAPNLLIFGASTLQSGVPSRFTGSGSGTVFTLTISSLQRDDFVIYYCQQTYSASGSFGQGTKVEIK
notes: full-length IgG; also called Antibody Number 69
B22: ADI-45148 (antibody, V domains shown)
VH: EVQLLESGGGLVQPGRSLRLSCAASGFTFDDYAMHWVRQAPGKGLEWVSGISWNSGSIGYADSVKGRFTISRDNAKNSLYLQMNSLRAEDTALYYCAKDIGDSYGSGSYYLPYGAYYGMDVWGQGTTVTVSS
VL: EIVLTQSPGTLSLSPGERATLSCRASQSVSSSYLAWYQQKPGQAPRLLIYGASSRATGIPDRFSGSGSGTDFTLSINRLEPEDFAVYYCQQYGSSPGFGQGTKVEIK
notes: full-length IgG; also called Antibody Number 72
B23: ADI-46729 (antibody, V domains shown)
VH: EVQLVESGPGLVKPSQTLSLTCTVSGGSISSGSYYWSWIRQPAGKGLEWIGRIYTSGSTNYNPSLKSRVTMSVDTSKNQFSLKLSSVTAADTAVYYCARGWFGYSNYGLYYYYGMDVWGQGTTVTVSS
VL: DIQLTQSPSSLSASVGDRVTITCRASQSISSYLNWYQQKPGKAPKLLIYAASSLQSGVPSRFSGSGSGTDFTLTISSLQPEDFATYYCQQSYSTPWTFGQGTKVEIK
notes: full-length IgG; also called Antibody Number 70

Molecular target: T1, recombinant YFV E protein (soluble E, sE; YFV Asibi strain) (Yellow fever virus, Asibi strain, UniProt Q6DV88 286-678)
T1 construct: also called YFV E antigen; YFV E monomer
T1 sequence (Q6DV88 286-678): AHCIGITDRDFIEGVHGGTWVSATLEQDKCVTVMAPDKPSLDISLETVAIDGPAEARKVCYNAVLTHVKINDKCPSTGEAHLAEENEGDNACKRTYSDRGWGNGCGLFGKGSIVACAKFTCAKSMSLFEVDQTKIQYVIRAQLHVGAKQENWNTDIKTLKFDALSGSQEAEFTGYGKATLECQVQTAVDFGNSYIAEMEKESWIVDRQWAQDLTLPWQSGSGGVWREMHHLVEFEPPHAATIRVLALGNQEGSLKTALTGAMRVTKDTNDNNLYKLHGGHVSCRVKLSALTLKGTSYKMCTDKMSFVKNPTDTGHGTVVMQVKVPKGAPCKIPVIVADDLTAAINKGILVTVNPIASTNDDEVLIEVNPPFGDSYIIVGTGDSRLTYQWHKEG
Test: BLI monovalent (IgG on tip)

Row | Binder | Kd [nM]
1 | B1 | 6.91
2 | B2 | 2.98
3 | B3 | > 100
4 | B4 | 4.05
5 | B5 | 0.999
6 | B6 | 1.64
7 | B7 | > 100
8 | B8 | 18
9 | B9 | 186
10 | B10 | 242
11 | B11 | 4.6
12 | B12 | 24.1
13 | B13 | > 100
14 | B14 | 1.76
15 | B15 | 20.8
16 | B16 | 434
17 | B17 | 2.13
18 | B18 | 0.7
19 | B19 | 42.1
20 | B20 | 4.01
21 | B21 | 1.05
22 | B22 | > 100
23 | B23 | > 100

From patent publication US20240218054A1 (MABLOC, published 2024)
